This note sets out measurements from article PMC3075667.

In data set [1] the target is Δ79AAG wild type (human) (UniProt P29372). The data set is described as follows: competition.
The target is the same in data set [2]. Briefly: EMSA.
Setting [3] is: 3,N4-ethenocytosine opposite G (G19).

Sequence of UniProt P29372 (P29372 84-298, stated change not applied): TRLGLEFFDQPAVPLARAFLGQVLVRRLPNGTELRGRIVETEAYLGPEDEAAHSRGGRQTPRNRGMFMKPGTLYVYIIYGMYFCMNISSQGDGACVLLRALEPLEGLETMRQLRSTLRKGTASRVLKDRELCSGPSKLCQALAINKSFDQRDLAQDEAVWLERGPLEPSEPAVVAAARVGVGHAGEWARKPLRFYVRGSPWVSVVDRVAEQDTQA

As for ϵC:G 13-mer, the IC50 (in general, the concentration that gives 50% inhibition) in data set [1] (setting [3]) turned out to be 39 nM. In addition, the dissociation constant (Kd) (in general, a measure of binding affinity in units of concentration) in data set [2] (setting [3]) was 21 nM.

Turning to ϵA:T 13-mer, in data set [1] (1,N6-ethenoadenine opposite T), the half-maximal inhibitory concentration (IC50) was 163 nM. The substance further registered a Kd in data set [2] (1,N6-ethenoadenine opposite T) of 46 nM.
